Laboratory results published in publication PMC2786245 (Biochemistry, 2009).

Biological target: the molecule itself
Assay: native gel or EMSA

B1: PII Δ47−53 (deletion of the apex of the T-loop) (natural protein, Escherichia coli, UniProt P0A9Z1 1-112, looked up)
chain: MKKIDAIIKPFKLDDVREALAEVGITGMTVTEVKGFGRQKGHTELYDFLPKVKIEIVVPDDIVDTCVDTIIRTAQTGKIGDGKIFVFDVARVIRIRTGEEDDAAI
binding result: binds
